Assay [1] has as its target T1, recombinant KIR2DL1 (extracellular domain-Fc-Avi, in-house) (human).
T1 construct: IL-2 signal peptide left out; also called soluble KIR2DL1
In words: flow cytometry, KIR-Fc 0.1 µM on scFv-K562 cells. (A flow cytometer gives signals particle by particle.)

Assay [2] concerns the target T2, recombinant KIR2DS1 (extracellular domain-Fc-Avi, in-house) (human).
T2 construct: In-house; IL-2 signal peptide left out; also called soluble KIR2DS1
In words: flow cytometry, KIR-Fc on scFv-K562 cells.

Assay [3] addresses T3, recombinant KIR2DS2 (extracellular domain-Fc-Avi, in-house) (human).
T3 construct: In-house; IL-2 signal peptide left out; also called soluble KIR2DS2
The assay is described as follows: flow cytometry, KIR-Fc on scFv-K562 cells.

Assay [4] concerns the target T4, recombinant KIR2DS4 (extracellular domain-Fc-Avi, in-house) (human).
T4 construct: In-house; IL-2 signal peptide left out; also called soluble KIR2DS4
In words: flow cytometry, KIR-Fc on scFv-K562 cells.

Assay [5] deals with CD16b (Fc, R&D system 1597-FC-050) (UniProt O75015 17-200, limits assumed). The assay is described as follows: flow cytometry, tagged protein on scFv-K562 cells.
CD16b (Fc, R&D system 1597-FC-050), sequence (O75015 17-200 limits assumed): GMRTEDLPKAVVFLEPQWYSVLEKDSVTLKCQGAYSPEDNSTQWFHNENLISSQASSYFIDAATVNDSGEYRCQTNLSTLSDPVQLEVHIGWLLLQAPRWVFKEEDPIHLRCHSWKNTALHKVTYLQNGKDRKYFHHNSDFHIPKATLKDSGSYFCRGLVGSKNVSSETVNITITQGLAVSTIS
The target in assay [6] is T5, KIR2DL1 (Fc, R&D system 1844-KR-050) (UniProt P43626 22-245).
T5 construct: Bought Fc-tagged protein
T5 sequence (P43626 22-245 limits assumed): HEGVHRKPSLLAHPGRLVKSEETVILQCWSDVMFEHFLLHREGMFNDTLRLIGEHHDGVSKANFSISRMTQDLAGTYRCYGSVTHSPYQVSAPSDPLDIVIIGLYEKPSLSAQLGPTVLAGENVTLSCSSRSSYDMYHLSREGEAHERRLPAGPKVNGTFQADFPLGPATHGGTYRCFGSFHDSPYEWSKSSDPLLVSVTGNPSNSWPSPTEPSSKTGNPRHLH
The assay is described as follows: flow cytometry, tagged protein on scFv-K562 cells.

Assay [7] concerns the target T6, CD32b/c (Fc, R&D system 1875-CD-050) (UniProt P31994 46-217).
T6 sequence (looked up): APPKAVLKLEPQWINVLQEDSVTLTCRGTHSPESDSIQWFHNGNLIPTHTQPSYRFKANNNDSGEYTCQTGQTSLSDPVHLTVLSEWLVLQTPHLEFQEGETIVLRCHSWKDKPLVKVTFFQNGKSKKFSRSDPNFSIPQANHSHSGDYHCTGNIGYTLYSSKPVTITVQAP
In words: flow cytometry, tagged protein on scFv-K562 cells.

Assay [8] deals with T7, LILRB2 (His, R&D system 8429-T4-050) (UniProt Q8N423 22-458).
T7 construct: Bought His-tagged protein
T7 sequence (Q8N423 22-458 limits assumed): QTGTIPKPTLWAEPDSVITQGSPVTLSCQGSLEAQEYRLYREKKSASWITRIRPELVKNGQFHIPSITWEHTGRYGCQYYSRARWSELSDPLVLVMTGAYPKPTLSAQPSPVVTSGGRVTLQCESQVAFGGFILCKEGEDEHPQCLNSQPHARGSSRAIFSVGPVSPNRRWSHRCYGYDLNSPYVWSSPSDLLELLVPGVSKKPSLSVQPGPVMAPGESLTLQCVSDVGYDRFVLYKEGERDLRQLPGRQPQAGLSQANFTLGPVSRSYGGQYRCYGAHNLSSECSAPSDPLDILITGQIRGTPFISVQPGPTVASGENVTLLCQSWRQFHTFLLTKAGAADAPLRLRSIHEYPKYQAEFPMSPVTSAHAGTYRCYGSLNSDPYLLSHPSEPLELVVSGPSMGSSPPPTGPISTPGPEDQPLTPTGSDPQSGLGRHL
The assay is described as follows: flow cytometry, tagged protein on scFv-K562 cells.

Assay [9] has as its target T8, KIR3DL1 (Fc, R&D system 1225-KR-050) (UniProt P43629 22-340).
T8 construct: Bought Fc-tagged protein
In words: flow cytometry, tagged protein on scFv-K562 cells.

Assay [10] has as its target T9, NKp46 (Fc, R&D system 1850-NK-025) (UniProt O76036 22-258, limits assumed).
T9 construct: Bought Fc-tagged protein
In words: flow cytometry, tagged protein on scFv-K562 cells.

For assay [11], the target named is CD64 (Fc, R&D system 1257-FC-050) (UniProt P12314 16-288). In words: flow cytometry, tagged protein on scFv-K562 cells.
CD64 (Fc, R&D system 1257-FC-050), sequence (P12314 16-288 limits assumed): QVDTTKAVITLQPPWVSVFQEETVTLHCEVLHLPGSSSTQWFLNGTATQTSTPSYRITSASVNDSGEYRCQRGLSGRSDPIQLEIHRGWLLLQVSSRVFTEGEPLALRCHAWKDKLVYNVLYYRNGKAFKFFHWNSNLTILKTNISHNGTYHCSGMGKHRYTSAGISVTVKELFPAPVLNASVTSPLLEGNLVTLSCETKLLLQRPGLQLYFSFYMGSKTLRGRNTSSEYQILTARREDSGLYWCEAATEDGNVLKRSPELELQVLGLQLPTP
Assay [12] has as its target T10, NKp30 (Fc, R&D system 1849-NK-025) (UniProt O14931 19-138, limits assumed).
T10 construct: Bought Fc-tagged protein
T10 sequence (looked up): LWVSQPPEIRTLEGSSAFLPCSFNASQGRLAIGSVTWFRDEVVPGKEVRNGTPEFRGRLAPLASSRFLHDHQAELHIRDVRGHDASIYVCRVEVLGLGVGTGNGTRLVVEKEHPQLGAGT
In words: flow cytometry, tagged protein on scFv-K562 cells.

The target of assay [13] is T11, LILRB1 (Fc, R&D system 2017-T2-050) (UniProt Q8NHL6 24-458).
T11 construct: Bought Fc-tagged protein
T11 sequence (Q8NHL6 24-458 limits assumed): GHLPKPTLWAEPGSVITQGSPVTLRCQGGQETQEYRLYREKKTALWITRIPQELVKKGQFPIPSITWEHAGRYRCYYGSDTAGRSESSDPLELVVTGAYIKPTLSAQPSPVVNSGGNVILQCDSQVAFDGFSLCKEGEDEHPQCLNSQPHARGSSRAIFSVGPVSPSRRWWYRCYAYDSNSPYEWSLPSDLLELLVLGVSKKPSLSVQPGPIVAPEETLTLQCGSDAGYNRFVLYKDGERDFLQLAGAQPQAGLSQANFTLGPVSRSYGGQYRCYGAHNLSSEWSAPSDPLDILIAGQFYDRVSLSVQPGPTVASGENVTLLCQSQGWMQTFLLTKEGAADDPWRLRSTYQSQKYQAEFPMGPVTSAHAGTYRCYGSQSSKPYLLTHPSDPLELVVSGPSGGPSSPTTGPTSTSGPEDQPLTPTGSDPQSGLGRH
In words: flow cytometry, tagged protein on scFv-K562 cells.

Assay [14] addresses T12, KIR2DL4 (Fc, R&D system 2238-KR-050) (UniProt Q99706 24-242, limits assumed).
T12 construct: Bought Fc-tagged protein
In words: flow cytometry, tagged protein on scFv-K562 cells.

The target of assay [15] is T13, NKG2C (Fc, R&D system 138-NK-050) (UniProt P26717 94-231, limits assumed).
T13 construct: Bought Fc-tagged protein
T13 sequence (P26717 94-231 limits assumed): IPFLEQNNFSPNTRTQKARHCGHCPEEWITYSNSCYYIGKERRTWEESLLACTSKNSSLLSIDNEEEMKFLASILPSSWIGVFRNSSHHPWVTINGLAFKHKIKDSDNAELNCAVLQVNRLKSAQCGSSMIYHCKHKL
The assay is described as follows: flow cytometry, tagged protein on scFv-K562 cells.

In assay [16] the target is T14, NKp44 (Fc, R&D system 2249-NK-050) (UniProt O95944 22-190, limits assumed).
T14 construct: Bought Fc-tagged protein
T14 sequence (looked up): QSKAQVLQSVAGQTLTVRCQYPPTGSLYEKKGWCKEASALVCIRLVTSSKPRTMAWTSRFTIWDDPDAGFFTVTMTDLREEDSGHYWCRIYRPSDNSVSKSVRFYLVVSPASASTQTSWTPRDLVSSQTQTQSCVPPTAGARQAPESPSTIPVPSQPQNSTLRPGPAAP
In words: flow cytometry, tagged protein on scFv-K562 cells.

The target of assay [17] is CD16a (Fc, R&D system 4325-FC-050) (UniProt P08637 17-208). The assay is described as follows: flow cytometry, tagged protein on scFv-K562 cells.
In assay [18] the target is T15, TIGIT (Fc, R&D system 9464-TG-050) (UniProt Q495A1 22-141).
T15 construct: Bought Fc-tagged protein
T15 sequence (looked up): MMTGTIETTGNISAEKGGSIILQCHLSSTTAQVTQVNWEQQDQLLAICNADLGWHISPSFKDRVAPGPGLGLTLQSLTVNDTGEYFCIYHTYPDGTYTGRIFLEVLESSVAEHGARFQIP
In words: flow cytometry, tagged protein on scFv-K562 cells.

The target of assay [19] is T16, KIR3DL3 (Fc, R&D system 10104-KR-050) (UniProt Q8N743 26-322, limits assumed).
T16 construct: Bought Fc-tagged protein
The assay is described as follows: flow cytometry, tagged protein on scFv-K562 cells.

In assay [20] the target is T17, NKG2E (Fc, R&D system 9759-NK-050) (UniProt Q07444 94-240, limits assumed).
T17 construct: Bought Fc-tagged protein
In words: flow cytometry, tagged protein on scFv-K562 cells.

The target of assay [21] is T18, KIR2DL5 (Fc, R&D system 6634-KR-050) (UniProt Q8N109 22-238, limits assumed).
T18 construct: Bought Fc-tagged protein
T18 sequence (Q8N109 22-238 limits assumed): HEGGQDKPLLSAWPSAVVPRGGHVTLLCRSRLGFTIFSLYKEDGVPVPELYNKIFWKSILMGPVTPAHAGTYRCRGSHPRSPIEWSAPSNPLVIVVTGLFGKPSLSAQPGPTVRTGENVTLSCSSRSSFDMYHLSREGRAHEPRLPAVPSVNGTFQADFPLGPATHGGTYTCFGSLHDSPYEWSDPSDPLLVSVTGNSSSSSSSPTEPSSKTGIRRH
The assay is described as follows: flow cytometry, tagged protein on scFv-K562 cells.

The target in assay [22] is T19, NKG2D (Fc, R&D system 1299-NK-050) (UniProt P26718 78-216).
T19 construct: Bought Fc-tagged protein
T19 sequence (looked up): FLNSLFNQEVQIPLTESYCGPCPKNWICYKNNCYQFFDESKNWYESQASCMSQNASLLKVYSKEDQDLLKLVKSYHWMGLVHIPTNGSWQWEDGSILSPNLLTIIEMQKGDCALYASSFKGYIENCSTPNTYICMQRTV
In words: flow cytometry, tagged protein on scFv-K562 cells.

The target of assay [23] is T20, NKG2A (Fc, R&D system 10511-NK-050) (UniProt P26715 94-233, limits assumed).
T20 construct: Bought Fc-tagged protein
T20 sequence (P26715 94-233 limits assumed): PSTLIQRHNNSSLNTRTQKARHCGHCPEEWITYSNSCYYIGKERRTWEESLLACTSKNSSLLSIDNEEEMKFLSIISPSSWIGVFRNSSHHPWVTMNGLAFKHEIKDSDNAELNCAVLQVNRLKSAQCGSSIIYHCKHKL
In words: flow cytometry, tagged protein on scFv-K562 cells.

Assay [24] has as its target T21, CD32a (Fc, R&D system 1330-CD-050) (UniProt P12318 36-218).
T21 sequence (looked up): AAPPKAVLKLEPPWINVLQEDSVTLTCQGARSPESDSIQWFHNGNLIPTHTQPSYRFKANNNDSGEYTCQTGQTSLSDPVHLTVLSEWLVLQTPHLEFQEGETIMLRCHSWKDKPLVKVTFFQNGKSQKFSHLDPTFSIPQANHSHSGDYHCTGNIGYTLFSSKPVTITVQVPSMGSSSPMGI
The assay is described as follows: flow cytometry, tagged protein on scFv-K562 cells.

Assay [25] concerns the target KIR2DS3 (Fc, prepared in-house) (UniProt Q14952 22-245, limits assumed). In words: flow cytometry, tagged protein on scFv-K562 cells.
The target of assay [26] is T22, CD161 (Fc, R&D system 7448-CD-050) (UniProt Q12918 67-225).
T22 construct: Bought Fc-tagged protein
In words: flow cytometry, tagged protein on scFv-K562 cells.

The target in assay [27] is T23, recombinant human KIR3DS1/CD158e2 Fc chimera protein (4136-KR-050, R&D Systems) (human, UniProt Q14943 22-340, limits assumed).
T23 construct: Bought Fc chimera; also called soluble KIR3DS1; recombinant KIR3DS1
T23 sequence (Q14943 22-340 limits assumed, change not shown): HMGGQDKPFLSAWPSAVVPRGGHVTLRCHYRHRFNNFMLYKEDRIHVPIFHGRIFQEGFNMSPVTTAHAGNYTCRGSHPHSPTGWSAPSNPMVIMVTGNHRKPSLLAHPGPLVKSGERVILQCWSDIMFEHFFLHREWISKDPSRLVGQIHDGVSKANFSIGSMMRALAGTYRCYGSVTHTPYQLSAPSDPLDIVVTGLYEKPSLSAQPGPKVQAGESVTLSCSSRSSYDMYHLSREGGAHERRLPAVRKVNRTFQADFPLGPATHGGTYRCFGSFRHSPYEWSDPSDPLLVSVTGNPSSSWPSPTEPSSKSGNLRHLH
In words: flow cytometry, tagged protein on scFv-K562 cells.

T1 sequence (chain, as listed by the source): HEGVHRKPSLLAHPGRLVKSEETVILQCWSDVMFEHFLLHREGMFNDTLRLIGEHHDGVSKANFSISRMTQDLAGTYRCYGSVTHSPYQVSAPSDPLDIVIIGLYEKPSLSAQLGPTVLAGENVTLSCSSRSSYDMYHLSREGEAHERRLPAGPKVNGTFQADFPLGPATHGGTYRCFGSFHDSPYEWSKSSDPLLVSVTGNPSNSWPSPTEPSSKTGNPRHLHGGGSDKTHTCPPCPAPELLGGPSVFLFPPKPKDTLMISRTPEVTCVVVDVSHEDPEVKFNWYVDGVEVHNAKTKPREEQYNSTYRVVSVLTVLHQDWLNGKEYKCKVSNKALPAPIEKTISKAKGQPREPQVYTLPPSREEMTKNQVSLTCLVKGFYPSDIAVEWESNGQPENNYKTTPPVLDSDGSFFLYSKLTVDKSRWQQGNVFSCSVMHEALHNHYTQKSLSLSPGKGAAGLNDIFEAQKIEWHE
T12 sequence (Q99706 24-242 limits assumed): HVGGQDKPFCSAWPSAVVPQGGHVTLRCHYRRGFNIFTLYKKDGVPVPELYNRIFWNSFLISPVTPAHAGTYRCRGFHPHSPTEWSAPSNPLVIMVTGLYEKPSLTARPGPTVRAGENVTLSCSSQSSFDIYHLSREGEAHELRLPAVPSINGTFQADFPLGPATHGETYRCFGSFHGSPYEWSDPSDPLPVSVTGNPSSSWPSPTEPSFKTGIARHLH
T2 sequence (chain, as listed by the source): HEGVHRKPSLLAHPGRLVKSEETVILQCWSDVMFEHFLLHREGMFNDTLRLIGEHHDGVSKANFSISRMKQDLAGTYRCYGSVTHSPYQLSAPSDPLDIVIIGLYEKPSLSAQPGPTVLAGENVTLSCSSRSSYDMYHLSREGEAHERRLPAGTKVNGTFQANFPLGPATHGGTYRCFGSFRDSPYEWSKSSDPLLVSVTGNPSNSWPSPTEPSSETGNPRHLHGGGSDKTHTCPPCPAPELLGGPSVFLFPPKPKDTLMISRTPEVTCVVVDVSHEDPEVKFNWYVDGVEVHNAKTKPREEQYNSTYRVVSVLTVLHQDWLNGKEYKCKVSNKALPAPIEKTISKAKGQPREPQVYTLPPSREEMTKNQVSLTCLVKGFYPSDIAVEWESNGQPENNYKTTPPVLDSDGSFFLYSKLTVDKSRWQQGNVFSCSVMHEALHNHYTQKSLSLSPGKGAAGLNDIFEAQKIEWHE
T3 sequence (chain, as listed by the source): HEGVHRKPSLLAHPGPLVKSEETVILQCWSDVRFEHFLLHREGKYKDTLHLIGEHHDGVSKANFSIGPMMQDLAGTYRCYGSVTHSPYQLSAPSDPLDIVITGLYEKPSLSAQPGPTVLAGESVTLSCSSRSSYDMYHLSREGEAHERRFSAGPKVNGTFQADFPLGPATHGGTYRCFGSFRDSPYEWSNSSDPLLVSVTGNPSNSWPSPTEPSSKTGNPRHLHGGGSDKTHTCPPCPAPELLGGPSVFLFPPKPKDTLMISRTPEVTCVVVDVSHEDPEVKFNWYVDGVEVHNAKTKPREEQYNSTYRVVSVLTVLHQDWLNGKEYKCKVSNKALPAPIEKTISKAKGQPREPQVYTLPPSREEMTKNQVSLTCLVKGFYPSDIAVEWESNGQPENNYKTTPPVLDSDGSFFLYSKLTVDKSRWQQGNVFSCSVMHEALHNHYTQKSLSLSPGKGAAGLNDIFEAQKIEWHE
T9 sequence (O76036 22-258 limits assumed): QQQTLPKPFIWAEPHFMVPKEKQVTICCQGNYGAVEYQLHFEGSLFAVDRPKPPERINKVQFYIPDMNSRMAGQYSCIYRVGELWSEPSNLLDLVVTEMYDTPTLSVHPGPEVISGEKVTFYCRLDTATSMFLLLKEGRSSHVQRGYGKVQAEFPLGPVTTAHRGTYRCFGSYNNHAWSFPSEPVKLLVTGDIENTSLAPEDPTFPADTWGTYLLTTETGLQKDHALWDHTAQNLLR
T8 sequence (P43629 22-340 limits assumed): as the sequence (Q14943 22-340 limits assumed, change not shown) above, with V47I, G58S, M92V, R136K, W138G, S163P, R166L, L199P, L315P counted along it
KIR2DS3 (Fc, prepared in-house), sequence (Q14952 22-245 limits assumed): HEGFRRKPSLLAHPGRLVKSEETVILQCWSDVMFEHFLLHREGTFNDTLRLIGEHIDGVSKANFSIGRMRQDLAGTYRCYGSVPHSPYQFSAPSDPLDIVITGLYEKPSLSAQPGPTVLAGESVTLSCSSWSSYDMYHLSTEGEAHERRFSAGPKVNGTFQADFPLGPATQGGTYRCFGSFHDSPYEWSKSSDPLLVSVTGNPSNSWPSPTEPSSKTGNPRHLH

B1: membrane-type a2DL1-DS1 scFv (scFv)
scFv: DYKDDDDKGSGQVQLQQSGPELVRASQTLSLTCAISGDSVSSNSATWNWIRQSPSRGLEWLGRTYYRSKWYNDYAVSVKSRITINPDTSKNQFSLQLNSVTPEDTAVYYCARDSPSYGRGVFDIWGQGTLVTVSSGGGGSGGGGSGGGGSDIVMTQSPDSLAVSLGERATINCKSSQSVLYSSNNKNYLAWYQQKPGQPPKLLIYWASTRESGVPDRFSGSGSGTDFTLTISSLQAEDVAVYYCQQYYSPPYTFGQGTKLEIKALSNSIMYFSHFVPVFLPAKPTTTPAPRPPTPAPTIASQPLSLRPEACRPAAGGAVHTRGLDFACDIYIWAPLAGTCGVLLLSLVITLYCNH
notes: On K562 cells
B1: the binding result in assay [1] is “binds”.

B2: membrane-type a2DL2/3-DS4 scFv (scFv)
scFv: DYKDDDDKGSGEVQLVQSGAEVKKPGSSVKVSCKASGGTFSSYAISWVRQAPGQGLEWMGGIIPIFGTANYAQKFQDRVTITADKSTSTAYMELSSLRSEDTAVYYCARGSRNFDYWGQGTLVTVSSGGGGSGGGGSGGGGSAIRMTQSPSSLSASVGDRVTIPCRASQSIGSYLNWYQQKPGKAPNLLIYAASSLQSGVPSRFSGSGSGTDFTLTISSLQPEDFATYYCQQSYSTPLTFGGGTKVDIKALSNSIMYFSHFVPVFLPAKPTTTPAPRPPTPAPTIASQPLSLRPEACRPAAGGAVHTRGLDFACDIYIWAPLAGTCGVLLLSLVITLYCNH
notes: On K562 cells
For B2, the binding result in [2], in [3], in assay [4], in [5], in [6] and in [7] was “no binding (tested: 0.1 µM)” in each case. The binding result in assay [8], in [9], in assay [10], in [11], in assay [12] and in assay [13] was “no binding (tested: 0.1 µM)” in each case. Further, the binding result in [14], in assay [15], in assay [16], in assay [17], in assay [18] and in assay [19] was “no binding (tested: 0.1 µM)” in each case. In addition, the binding result in [20], in assay [21], in [22], in assay [23], in [24] and in assay [25] was “no binding (tested: 0.1 µM)” in each case. The binding result in assay [26] and in [27] was “no binding (tested: 0.1 µM)” throughout.

B3: membrane-type a2DL1-DS11 scFv (scFv)
scFv: DYKDDDDKGSGEVQLVQSGAEVKKPGSSVKVSCKASGGTFSSYAISWVRQAPGQGLEWMGGIIPIFGTANYAQKFQGRVTITADESTSTAYMELSSLRSEDTAVYYCARGLRFFDYWGQGTLVTVSSGGGGSGGGGSGGGGSQSVLTQPPSASGTPGQRVTISCSGSSSNIGTNTVNWYQQFPGTAPKLLIYSNNQRPSGVPDRFSGSKSGTSGSLAISGLQSEDEADYYCAAWDDSLQGWLFGGGTKLTVLALSNSIMYFSHFVPVFLPAKPTTTPAPRPPTPAPTIASQPLSLRPEACRPAAGGAVHTRGLDFACDIYIWAPLAGTCGVLLLSLVITLYCNH
notes: On K562 cells
In the case of B3, the binding result in assay [1] was “binds”.
